Results published in US7897573B2, “Selective VPAC2 receptor peptide agonists” (priority 2005, dated 2011).

Experiments:
[1] = Pharmacokinetic profiles of PEGylated peptides in Fisher 344 rats; type: in vivo, rat; settings: 100 μg agonist/kg, plasma RIA, mean N = 3
Experimental: Pharmacokinetic profiles of PEGylated peptides. Healthy Fisher 344 rats (3 animals per group) were injected with 100 μg agonist/kg (agonist amount based on peptide content and dissolved in PBS buffer). Blood samples were drawn 3, 12, 24, 48, 72, 96 and 168 hour post dosing and the peptide content in plasma was analysed by a radio-immunoassay (RIA) directed against the N-terminus of the peptide. PK parameters were then calculated using a model-independent method (WinNonlin Pro, Pharsight Corp., Mountain View, Calif., USA).

[2] = Rat serum stability study (DiscoveRx cAMP read-out on CHO-VPAC2 cells); settings: EC50, 4° C./EC50, 37° C., values >100% may represent release of intact peptide from the PEG conjugate; for 24 h stab (%): 24 h in rat serum at 37° C.
Experimental: In order to determine the stability of VPAC2 receptor peptide agonists in rat serum, CHO-VPAC2 cells clone #6 (96 well plates/50,000 cells/well and 1 day culture), PBS 1× (Gibco), the peptides for the analysis in a 100 μM stock solution, rat serum from a sacrificed normal Wistar rat, aprotinin, and a DiscoveRx assay kit are obtained. The rat serum is stored at 4° C. until use and is used within two weeks.
The aliquot is stored with aprotinin at 4° C. The aliquot is stored without aprotinin at 37° C. The aliquots are incubated for 24 or 72 hours.
On Day 1, after incubation of the aliquots prepared on day 0 for 24 or 72 hours, an incubation buffer containing PBS+1.3 mM CaCl2, 1.2 mM MgCl2, 2 mM glucose, and 0.25 mM IBMX is prepared. A plate with 11 serial 5× dilutions of peptide for the 4° C. and 37° C. aliquot is prepared for each peptide studied. […] The plate(s) are washed with cells twice in incubation buffer. The plates are allowed to hold 50 μL incubation media per well for 15 minutes. 50 μL solution per well is transferred to the cells from the plate prepared with 11 serial 5× dilutions of peptide for the 4° C. and 37° C. aliquot for each peptide studied, using the maximal concentrations that are indicated by the primary screen, in duplicate. This step dilutes the peptide concentration by a factor of two. The cells are incubated at room temperature for 30 minutes. The supernatant is removed. 40 μL/well of the DiscoveRx antibody/extraction buffer is added. The cells are incubated on the shaker (300 rpm) for 1 hour. Normal procedure with the DiscoveRx kit is followed. cAMP standards are included in column 12. EC50 values are determined from the cAMP assay data.

Human VPAC1 Receptor = target: T1, Human VPAC1 Receptor (Homo sapiens, UniProt P32241); experiment: Filter binding assay, 125I-labeled VIP, membranes of cells transiently transfected with human VPAC1; settings: 125I-labeled VIP tracer
T1 construct: expressed in transfected cells
T1 sequence (P32241 31-457): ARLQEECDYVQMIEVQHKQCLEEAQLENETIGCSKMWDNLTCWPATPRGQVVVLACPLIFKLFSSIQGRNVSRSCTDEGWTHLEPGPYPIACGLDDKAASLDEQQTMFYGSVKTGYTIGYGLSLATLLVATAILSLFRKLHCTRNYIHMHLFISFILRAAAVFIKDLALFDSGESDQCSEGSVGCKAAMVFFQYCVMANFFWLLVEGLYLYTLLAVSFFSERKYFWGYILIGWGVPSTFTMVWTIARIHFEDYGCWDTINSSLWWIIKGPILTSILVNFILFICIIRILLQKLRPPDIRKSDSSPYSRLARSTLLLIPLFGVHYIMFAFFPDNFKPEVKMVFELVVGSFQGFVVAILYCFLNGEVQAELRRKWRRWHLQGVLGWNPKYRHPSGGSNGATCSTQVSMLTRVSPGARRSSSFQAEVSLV
Experimental: (§1) For this assay, the solutions and equipment include:
(§2) Presoak solution: 0.5% Polyethyleneamine in Aqua dest
(§3) Buffer for flushing filter plates: 25 mM HEPES pH 7.4
(§4) Blocking buffer: 25 mM HEPES pH 7.4; 0.2% protease free BSA
(§5) Assay buffer: 25 mM HEPES pH 7.4; 0.5% protease free BSA
(§6) Dilution and assay plate: PS-Microplate, U form
(§7) Filtration Plate Multiscreen FB Opaque Plate; […] Type B Glasfiber filter
(§8) In order to prepare the filter plates, the presoak solution is aspirated by vacuum filtration. The plates are flushed twice with 200 μL flush buffer. 200 μL blocking buffer is added to the filter plate. The filter plate is then incubated with 200 μL presoak solution for 1 hour at room temperature.
(§9) The assay plate is filled with 25 μL assay buffer, 25 μL membranes (2.5 μg) suspended in assay buffer, 25 μL agonist in assay buffer, and 25 μL tracer (about 40000 cpm) in assay buffer. The filled plate is incubated for 1 hour with shaking.
(§10) The transfer from assay plate to filter plate is conducted. The blocking buffer is aspirated by vacuum filtration and washed two times with flush buffer. 90 μL is transferred from the assay plate to the filter plate. The 90 μL transferred from assay plate is aspirated and washed three times with 200 μL flush buffer. The plastic support is removed. It is dried for 1 hour at 60° C. 30 μL Microscint is added. The count is performed.

Human PAC1 Receptor = target: T2, Human PAC1 Receptor (Homo sapiens, UniProt P41586); experiment: Filter binding assay, 125I-labeled PACAP-27, membranes of cells transiently transfected with human PAC1; settings: 125I-labeled PACAP-27 tracer
T2 construct: expressed in transfected cells
T2 sequence (P41586 21-468): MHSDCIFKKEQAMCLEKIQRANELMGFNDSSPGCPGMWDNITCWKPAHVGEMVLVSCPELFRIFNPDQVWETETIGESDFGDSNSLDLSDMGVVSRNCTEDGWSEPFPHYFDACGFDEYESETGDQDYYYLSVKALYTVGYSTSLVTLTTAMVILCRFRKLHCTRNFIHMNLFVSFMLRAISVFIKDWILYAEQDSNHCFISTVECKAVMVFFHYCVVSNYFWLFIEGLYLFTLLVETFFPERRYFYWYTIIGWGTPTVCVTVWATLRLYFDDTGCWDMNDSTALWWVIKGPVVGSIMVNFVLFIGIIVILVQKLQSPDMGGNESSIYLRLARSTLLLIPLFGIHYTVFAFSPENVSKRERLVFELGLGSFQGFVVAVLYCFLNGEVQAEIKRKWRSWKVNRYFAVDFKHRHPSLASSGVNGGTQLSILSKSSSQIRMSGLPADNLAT
Experimental: as §1, §2, §3, §4, §5, §6, §7, §8, §9, §10

Substance: C6-HSDAVFTEQY(OMe)TOrnLRAibQLAAbuAibOrnYLQSIOrnC(PEG40K)OrnGGPSSGAPPPS-NH2 (HSDAVFTEQYTXLRXQLAXXXYLQSIXCXGGPSSGAPPPS; C6 acyl, PEG40K on Cys, C-terminal amide; Synthetic sequence PEGylated VPAC2 receptor agonist) [Agonist P539]
- AUC0-last [1]: 4013 ng·h/mL
- Cl/F [1]: 0.417 mL/min/kg
- Cmax [1]: 102 ng/mL
- Tmax [1]: 24 h
- T½ [1]: 15 h
- 24 h stab (%) [2]: 123%

Substance: C6-HSDAVFTEQY(OMe)TOrnLRAibQLAAbuAibOrnYAibQSIOrnOrnGGPSSGAPPPC(PEG20K)C(PEG20K)-NH2 (HSDAVFTEQYTXLRXQLAXXXYXQSIXXGGPSSGAPPPCC; C6 acyl, two PEG20K, C-terminal amide; Synthetic sequence PEGylated VPAC2 receptor agonist) [Agonist P521]
- AUC0-last [1]: 7633 ng·h/mL
- Cl/F [1]: 0.217 mL/min/kg
- Cmax [1]: 233 ng/mL
- Tmax [1]: 12 h
- T½ [1]: 19 h
- 72 h stab (%) ([2]; 72 h in rat serum at 37° C.): 294%

Substance: C6-HSDAVFTEQY(OMe)TOrnLRAibQLAAbuAibOrnYLQAibIOrnC(PEG20K)OrnGGPSSGAPPPC(PEG20K)-NH2 (HSDAVFTEQYTXLRXQLAXXXYLQXIXCXGGPSSGAPPPC; C6 acyl, two PEG20K, C-terminal amide; Synthetic sequence PEGylated VPAC2 receptor agonist) [Agonist P553]
- IC50 (Human VPAC1 Receptor): > 25000 nM
- IC50 (Human PAC1 Receptor): > 25000 nM

Substance: C6-HSDAYFTEQY(OMe)TOrnLRAibQLAAbuAibOrnYLQSIOrnK(CO(CH2)2SPEG20K)OrnGGPSSGAPPPC(PEG20K)-NH2 [Agonist P551]
- IC50 (Human VPAC1 Receptor): > 25000 nM
- IC50 (Human PAC1 Receptor): > 25000 nM

Substance: C6-HSDAVFTEQY(OMe)TOrnLRAibQLAAbuAibOrnY(OMe)LQSIOrnOrnGGPSSGAPPPC(PEG20K)C(PEG20K)-NH2 (HSDAVFTEQYTXLRXQLAXXXYLQSIXXGGPSSGAPPPCC; C6 acyl, non-natural residues, two PEG20K, C-terminal amide; Synthetic sequence PEGylated VPAC2 receptor agonist) [Agonist P582]
- IC50 (Human VPAC1 Receptor): > 25000 nM
- IC50 (Human PAC1 Receptor): > 25000 nM

Substance: C6-HSDAVFTEQY(OMe)TOrnLRAibQLAAbuAibOrnYLQAibIOrnOrnC(PEG20K)GGPSSGAPPPC(PEG20K)-NH2 (HSDAVFTEQYTXLRXQLAXXXYLQXIXXCGGPSSGAPPPC; C6 acyl, non-natural residues, two PEG20K, C-terminal amide; Synthetic sequence PEGylated VPAC2 receptor agonist) [Agonist P580]
- IC50 (Human VPAC1 Receptor): > 25000 nM
- IC50 (Human PAC1 Receptor): > 25000 nM

Substance: C6-HSDAVFTEQY(OMe)TOrnLRAibQVAAAibOrnYLQSC(PEG20K)OrnOrnGGPSSGAPPPC(PEG20K)-NH2 (HSDAVFTEQYTXLRXQVAAXXYLQSCXXGGPSSGAPPPC; C6 acyl, two PEG20K, C-terminal amide; Synthetic sequence PEGylated VPAC2 receptor agonist) [Agonist P503]
- 24 h stab (%) [2]: 174%

Substance: C6-HSDAVFTEQY(OMe)TOrnLRAibQVC(PEG40K)AAibOrnyLQSIOrnOrnGGPSSGAPPPS-NH2 [Agonist P478]
- 24 h stab (%) [2]: 34%

Substance: C6-HSDAVFTEQY(OMe)TOrnLRAibQVAAAibK(CO(CH2)2SPEG20K)YLQSIOrnOrnGGPSSGAPPPS-NH2 (HSDAVFTEQYTXLRXQVAAXXYLQSIXXGGPSSGAPPPS; C6 acyl; PEG20K; non-natural residues; amide; Synthetic sequence PEGylated VPAC2 receptor peptide agonist) [Agonist P473]
- IC50 (Human VPAC1 Receptor): > 25000 nM
- 24 h stab (%) [2]: 86%

Substance: C6-HSDAVFTEQY(OMe)TOrnLRAibQLAAbuAibOrnYLQSIOrnOrnC(PEG20K)GGPSSGAPPPC(PEG20K)-NH2 (HSDAVFTEQYTXLRXQLAXXXYLQSIXXCGGPSSGAPPPC; C6 acyl, two PEG20K, C-terminal amide; Synthetic sequence PEGylated VPAC2 receptor agonist) [Agonist P572]
- IC50 (Human VPAC1 Receptor): > 25000 nM
- IC50 (Human PAC1 Receptor): > 25000 nM

Substance: C6-HSDAVFTEQY(OMe)TOrnLRC(PEG40K)QVAAAibOrnYLQSIOrnOrnGGPSSGAPPPS-NH2 (HSDAVFTEQYTXLRCQVAAXXYLQSIXXGGPSSGAPPPS; N-terminal C6 acyl, PEG40K on Cys, C-terminal amide; Synthetic sequence PEGylated VPAC2 receptor agonist) [Agonist P483]
- IC50 (Human VPAC1 Receptor): > 25000 nM
- 24 h stab (%) [2]: 22%

Substance: C6-HSDAVFTEQY(OMe)TOrnLRAibQLAbuAAibOrnYLQSIOrnOrnGGPSSGAPPPC(PEG20K)C(PEG20K)-NH2 (HSDAVFTEQYTXLRXQLXAXXYLQSIXXGGPSSGAPPPCC; C6 acyl, non-natural residues, two PEG20K, C-terminal amide; Synthetic sequence PEGylated VPAC2 receptor agonist) [Agonist P590]
- IC50 (Human VPAC1 Receptor): > 25000 nM
- IC50 (Human PAC1 Receptor): > 25000 nM

Substance: C6-HSDAVFTEQY(OMe)TRAibRAibQLAAAibOrnY(OMe)LQSIKAibOrnGGPSSGAPPPC(PEG40K)-NH2 (HSDAVFTEQYTRXRXQLAAXXYLQSIKXXGGPSSGAPPPC; C6 acyl; PEG40K; non-natural residues; amide; Synthetic sequence PEGylated VPAC2 receptor peptide agonist) [Agonist P417]
- IC50 (Human VPAC1 Receptor): > 25000 nM
- 24 h stab (%) [2]: 265%

Substance: C6-HSDAVFTEQY(OMe)TOrnLRAibQLAAbuAibOrnYLQAibIOrnC(PEG40K)OrnGGPSSGAPPPS-NH2 (HSDAVFTEQYTXLRXQLAXXXYLQXIXCXGGPSSGAPPPS; C6 acyl, PEG40K on Cys, C-terminal amide; Synthetic sequence PEGylated VPAC2 receptor agonist) [Agonist P537]
- IC50 (Human VPAC1 Receptor): > 25000 nM
- IC50 (Human PAC1 Receptor): > 25000 nM
